Data taken from the supplement of paper PMC9170038.

System: MS2 coat protein
Assay: apparent KD of MS2 coat protein; designed switch direction (-1 OFF switch, 1 ON switch): -1; higher = weaker reporter binding
Method in brief: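 The buffer was Tris-HCl pH 7.5 with KCl, MgCl2, BSA, DTT, tRNA and Tween-20. In it, SNAP-549-labelled MS2 coat protein was titrated in doubling steps from 0.7 or 1.5 nM to 3 µM over chip-bound RNA switches transcribed by stalled E. coli RNA polymerase on Illumina chips. Apparent KD is the per-design median over clusters of curve fits to normalised fluorescence.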

[1] = Eterna round: R95, input ligand: microRNA oligo, concentration not stated
[2] = input ligand: microRNA oligo, concentration not stated
[3] = Eterna round: R95, input ligand: FMN 200 uM
[4] = Eterna round: R95, input ligand: none

Sequence	apparent KD of MS2 coat protein [1] [nM]	apparent KD of MS2 coat protein (input ligand: FMN 200 uM) [nM]	apparent KD of MS2 coat protein (input ligand: none) [nM]	apparent KD of MS2 coat protein [2] [nM]	apparent KD of MS2 coat protein [3] [nM]	apparent KD of MS2 coat protein [4] [nM]
CCAUCGUGUGUGAGGAUAUGCUGGUCCUUGGAUCAGCAGAAGGCACAUGAGGAUCACCCAUGUGAAAACGAUGG [Mat - Exclusion 4 - JL Mod - D88] (puzzle: Brourd's mod of Exclusion 4)	16.8	–	–	–	–	–
CCAUGCACGCUGCGGUCCUACAUGAGGAUCACCCAUGUGGUCUGGUGGCGUGGGUCGCCGGACUUGGCUCGUCUUGA [salish99_S_TOV1_R5_022] (Eterna round: R97, puzzle: Sensor, turn-off variant 1)	–	25.6	24.7	–	–	–
CCAUGGAGUGUGAGGAUAUGCUGGUCCUUGGAUCAGCAGAAGGCACAUGAGGAUCACCCAUGUGAAUACCGUGG [Mat - Exclusion 4 - JL Mod - D83] (puzzle: Brourd's mod of Exclusion 4)	31.4	–	–	–	–	–
CCAUGGGAGCGAGGAUAUAGACCAUGGGAAGAUCUAGAAGGCGCUGACAUGAGGAUCACCCAUGUGUUCAUGAGGAGGUGGACA (Eterna round: R96, puzzle: Exclusion NG 1)	–	73.7	47.1	74.4	–	–
CCAUGGGUGCGAGGAUAUAGCCCAUGGGAAGAGCUAGAAGGCGCAGACAUGAGGAUCACCCAUGUGUUCAUGAGGAGGUGGACA (Eterna round: R96, puzzle: Exclusion NG 1)	–	124	84.8	54.8	–	–
CCCACAGGACAUGAGGAUCACCCAUGUGCGAUAUCCUGAGCGCAGGAUAUUUUCCCACGAAAGGAAGAGAAGGGCGCCGAAAGC [Eternabot solution 1] (Eterna round: R96, puzzle: Exclusion NG 3)	–	24.6	44.3	29.6	–	–
CCCACGCACCAAGGAUAUGUUCCGCACAUGAGGAUCACCCAUGUGGCCAGCGAUUCUGUGUGAGAACAGAAGGUGGUUAUGUUA [Eternabot solution 41] (Eterna round: R96, puzzle: Exclusion NG 2)	–	468	219	315	–	–
CCCAGACUAGGAUAUACAAGCCGUGGCGAGGUGGGCCUGGGACAUGAGGAUCACCCAUGUAGAAGGAGUAGGUC [Eternabot (Original) Solution 31] (Eterna round: R97, puzzle: Exclusion 2)	–	127	136	–	–	–
CCCAGGGCAGGAUAUAGAGGGCGAAACAUGAGGAUCACCCAUGUGACCUCGGAACAGCUGCUAGAAGGGCCAAAUU [Beesquti] (puzzle: Exclusion 5)	14.8	–	–	–	21.1	15.3
CCCAGUUACGUAGGAUAUUGUACAUGAGGAUCACCCAUGUAAUAAAUGAGGAUUUCGGGUGUCUACAAGAAGGACGGGAUAGGC [Ostracism 17 - Jieux - Exclusion NG 2] (Eterna round: R96, puzzle: Exclusion NG 2)	–	186	93	80.6	–	–
CCCAGUUAUUGAGGAUAUUGUACAUGAGGAUCACCCAUGUAAUAAAUGAGGAUUUCGGGUGUCUACAAGAAGGCAAGGAUAGGC [Ostracism 20 - Jieux - Exclusion NG 2] (Eterna round: R96, puzzle: Exclusion NG 2)	–	54.6	46.8	46.1	–	–
CCCAUGUCAGGAUAUUAGAUACUGCCUCAAAACAAAGGCAUUGAGAAGGGACAUGAGGAUCACCCAUGUAAAAC [Leissobima] (Eterna round: R97, puzzle: Exclusion 4)	–	59.5	183	–	–	–
CCCGUGUGAGGAUAUCCCUCCACAGUACGAAUCGACCCGUGGGAGAAGGCACAUGAGGAUCACCCAUGUGAACG [Eternabot (Original) Solution 30] (Eterna round: R97, puzzle: Exclusion 4)	–	42.5	32.8	–	–	–
CCCUCACAUGAGGAUCACCCAUGUCAGGAUAUCUAGUCAGACAGUGUAGCACUGCUGAAGAGAAGGGACGUAAA [Isinzare] (puzzle: Exclusion 1)	15.9	–	–	–	–	–
CCCUCACAUGAGGAUCACCCAUGUCAGGAUAUUCGAACGGUGUGUUUUUGGCCAGUUGGAAGAAGGGACAUAAA [Riinesbe] (Eterna round: R96, puzzle: Exclusion 1)	–	278	32.2	29	–	–
CCCUCACAUGAGGAUCACCCAUGUCAGGAUAUUCGAACGGUGUGUUUUUGGCCAGUUGGAAGAAGGGACAUAAA [Riinesbe] (puzzle: Exclusion 1)	36.2	–	–	–	–	–

Sequence	apparent KD of MS2 coat protein [1] [nM]	apparent KD of MS2 coat protein (input ligand: FMN 200 uM) [nM]	apparent KD of MS2 coat protein (input ligand: none) [nM]	apparent KD of MS2 coat protein [2] [nM]	apparent KD of MS2 coat protein [3] [nM]	apparent KD of MS2 coat protein [4] [nM]
CCCUCACAUGAGGAUCACCCAUGUCAGGAUAUUCGAGGCGCAAAUACGCCAAAUGCAGGAAGAAGGGACGUGCC [Ususzalaxe] (puzzle: Exclusion 1)	13.5	–	–	–	–	–
CCGACUCAAGGAUAUUGUACUGCUGACAUGAGGAUCACCCAUGUGUCCUGACGCGGACGACGAGAAGGUGACGACA [Eternabot (Original) Solution 44] (Eterna round: R97, puzzle: Exclusion 5)	–	981	292	–	–	–
CCGAGCAUAUGAGGAUCAGACAUGAGGAUCACCCAUGUGCUCCGUCGAAGGAAUAAUCAUAAUGCUGGCUCGUCGUG [Eternabot (L2) Solution 6] (Eterna round: R97, puzzle: Sensor, turn-off variant 1)	–	555	457	–	–	–
CCGAGGUAGCGGUCCUAUGACAUGAGGAUCACCCAUGUACCUCGCUACGAGCUUUUUGCUCGUCAUAUAAUUCUCGG [Mat - Sensor v3 - turn-off var 1 - JL Mod - D30] (Eterna round: R96, puzzle: Sensor v3, turn-off variant 1)	–	56.8	61.3	49.7	–	–
CCGAGGUAGCGGUCCUAUGACAUGAGGAUCACCCAUGUACCUCGCUACGAGCUUUUUGCUCGUCAUAUAAUUCUCGG [Mat - Sensor v3 - turn-off var 1 - JL Mod - D30] (puzzle: Sensor v3, turn-off variant 1)	57.9	–	–	–	45.4	66.3
CCGAGGUGGCGGUCCUAUGACAUGAGGAUCACCCAUGUACCUCGCCACAAGCUUUUUGCUCAUCUUAUAAUUCUCGG [Gelelebius] (puzzle: Sensor v3, turn-off variant 1)	117	–	–	–	18	16.1
CCGAUAAUGUAGGAUAUCGUAUCGGAAACGAUACGAGAAGGACAAACAUGAGGAUCACCCAUGUUCCUUAACGG [Mat - Exclusion 6 - Eli Mod - D73] (puzzle: Exclusion 6)	15	–	–	–	–	–
CCGAUGUGAGGAUAUACACUAGGGUGCGUAUACGUGAGCAAACAUGAGGAUCACCCAUGUAGAAGGCACUGAAA [Eternabot (Original) Solution 50] (Eterna round: R97, puzzle: Exclusion 2)	–	117	30.9	–	–	–
CCGCAAAAGCAGGAUAUCGUAUCGGAUACGAUACGAGAAGGGUUUACAUGAGGAUCACCCAUGUUCCUUAGCGG [Fiskers Ex 6 - 32] (puzzle: Exclusion 6)	26.8	–	–	–	–	–
CCGCAUAAGCAGGAUAUCGUAUCGGAGACGAUACGAGAAGGGUUAACAUGAGGAUCACCCAUGUUCCUUAACGG [Mat - Exclusion 6 - Eli Mod - D99] (puzzle: Exclusion 6)	14.1	–	–	–	19.7	18.1
CCGCCAUGAGGAUAUCCAUCUGGAUCAGACAAGAUCCUGAUGGAGAAGGGACAUGAGGAUCACCCAUGUUGCGG [Mat - Exclusion 4 - Eli Mod - D55] (Eterna round: R97, puzzle: Exclusion 4)	–	60.4	60	–	–	–
CCGCCGCAAGGAUAUACUUGCGGUGAUGUUCGAGUUCUUCUACUUGAGGAUCACCCAAGUAGAAGGUGCAAAAC [jl-ex2.4.59 ViennaUCT mod] (Eterna round: R97, puzzle: Exclusion 2)	–	13	12.5	–	–	–
CCGCUCCGUGUAGGAUAUCGCUGUACCCUGCGGCGAGAAGGACAUGAGGAUCACCCAUGUAUGUUAUUAUCACGCGUGGCGCAC [Design 72] (Eterna round: R96, puzzle: Exclusion NG 1)	–	16	16.4	12.4	–	–
CCGCUCCGUGUAGGAUAUUGGCGUGCUCUGCGCCGAGAAGGACAUGAGGAUCACCCAUGUAUGUUAUUAUCACGCGUGGCGCAU [Design 78] (Eterna round: R96, puzzle: Exclusion NG 1)	–	30.6	18.6	11.5	–	–
CCGGAAGUACAGGAUAUAGGAGUCGAUAGACUCCUAGAAGGGUAUACAUGAGGAUCACCCAUGUGUCCUACCGG [Fiskers Ex 6 - 71] (puzzle: Exclusion 6)	23.6	–	–	–	–	–
